Paper PMC8281026, “Peptide Based Inhibitors of Protein Binding to the Mitogen-Activated Protein Kinase Docking Groove” (Frontiers in Molecular Biosciences, 2021)
One block for each binder: values may come before it. Primed or numbered codes have the meaning given here. The star is where a group is joined. Dabcyl′ = 4-((4-(dimethylamino)phenyl)azo)benzoyl, CN(C)c1ccc(/N=N/c2ccc(C(=O)*)cc2)cc1

What was measured:
[1] = molecular target: T1, p38α (UniProt Q16539 1-360); assay: fluorescence polarisation; competitive: complex of the MAPK with 50 nM Cf-RHDF at 60-80% complex formation titrated with increasing unlabeled peptide; 20 mM Tris pH 8.0, 100 mM NaCl, 0.05% Brij35, 2 mM TCEP; 384-well black plates; triplicates; constants are called Kd in Table 1 and Ki in the methods; conditions: both partners purified
T1 construct: The in vitro activity assay used active, phosphorylated pp-p38α (1 nM); source: recombinantly expressed in Escherichia coli, purified according to Garai et al

[2] = molecular target: T2, ERK2 (UniProt P28482 1-360); assay: as above; conditions: both partners purified
T2 construct: The in vitro activity assay used active, phosphorylated pp-ERK2 (1 nM); also called extracellular signal-regulated kinase 2; MAPK; source: recombinantly expressed in Escherichia coli, purified according to Garai et al
T2 sequence (P28482 whole entry): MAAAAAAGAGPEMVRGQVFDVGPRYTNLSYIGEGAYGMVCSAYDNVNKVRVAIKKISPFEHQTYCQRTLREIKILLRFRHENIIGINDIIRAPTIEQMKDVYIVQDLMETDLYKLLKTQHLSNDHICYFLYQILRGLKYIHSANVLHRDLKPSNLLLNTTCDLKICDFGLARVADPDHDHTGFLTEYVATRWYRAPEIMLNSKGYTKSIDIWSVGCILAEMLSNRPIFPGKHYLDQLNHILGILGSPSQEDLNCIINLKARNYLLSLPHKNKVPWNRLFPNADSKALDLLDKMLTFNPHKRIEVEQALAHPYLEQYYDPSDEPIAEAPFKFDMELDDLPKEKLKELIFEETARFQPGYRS

T1 sequence (Q16539 whole entry): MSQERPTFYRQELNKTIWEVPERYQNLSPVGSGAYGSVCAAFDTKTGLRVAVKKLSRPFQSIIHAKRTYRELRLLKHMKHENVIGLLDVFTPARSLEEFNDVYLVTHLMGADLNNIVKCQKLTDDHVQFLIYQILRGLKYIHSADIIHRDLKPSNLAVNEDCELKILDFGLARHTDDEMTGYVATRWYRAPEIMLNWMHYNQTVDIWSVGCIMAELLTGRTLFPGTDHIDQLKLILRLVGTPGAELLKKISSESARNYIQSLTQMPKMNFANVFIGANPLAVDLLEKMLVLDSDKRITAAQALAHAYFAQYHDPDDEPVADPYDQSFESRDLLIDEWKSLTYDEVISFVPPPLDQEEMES

Kd [1]: 1100 nM
Kd [2]: 1.8 µM
B1: H-SLQRKKPPWLKLDIPSC-NH2 (peptide 1, RHDF1 linear binding motif) (peptide)
peptide: H-SLQRKKPPWLKLDIPSC-NH2
notes: C-terminal cysteine that follows the 16 residues of the motif in the printed peptide; not part of the motif as printed in the text; The added Cys probably serves for conjugation (cysteine containing peptides were joined to chloroacetylated peptides); also called original peptide; source: synthetic peptide (Fmoc/tBu solid phase on Rink-amide MBHA resin, RP-HPLC purified)

Kd [2]: 15 µM
B2: H-KKPPWLKLDI-NH2 (peptide 4) (peptide)
peptide: H-KKPPWLKLDI-NH2
notes: RHDF1 docking motif without the flanking regions SLQR (N-terminus) and PS (C-terminus); also called short peptide; truncated construct; source: synthetic peptide (Fmoc/tBu solid phase on Rink-amide MBHA resin, RP-HPLC purified)

Kd [1]: 1400 nM
Kd [2]: 1.3 µM
B3: H-RRRPPWLRLDIRR-NH2 (peptide 8) (peptide)
peptide: H-RRRPPWLRLDIRR-NH2
notes: peptide 6 with one more Arg at the N-terminus; source: synthetic peptide (Fmoc/tBu solid phase on Rink-amide MBHA resin, RP-HPLC purified)

Kd [2]: 5.2 µM
B4: H-RRPPWLRLDIRR-NH2 (peptide 6) (peptide)
peptide: H-RRPPWLRLDIRR-NH2
notes: peptide 5 extended at the C-terminus by two Arg; source: synthetic peptide (Fmoc/tBu solid phase on Rink-amide MBHA resin, RP-HPLC purified)

Kd [1]: 10000 nM
Kd [2]: 19.5 µM
B5: H-RRPPWLRLDI-NH2 (peptide 5) (peptide)
peptide: H-RRPPWLRLDI-NH2
notes: source: synthetic peptide (Fmoc/tBu solid phase on Rink-amide MBHA resin, RP-HPLC purified)

Kd [1]: 1000 nM
Kd [2]: 4.6 µM
B6: Dabcyl-RRRPPWLRLDIRRK-NH2 (peptide 10) (peptide)
peptide: {Dabcyl′}-RRRPPWLRLDIRRK-NH2
SMILES: CC[C@H](C)[C@H](NC(=O)[C@H](CC(=O)O)NC(=O)[C@H](CC(C)C)NC(=O)[C@H](CCCNC(=N)N)NC(=O)[C@H](CC(C)C)NC(=O)[C@H](Cc1c[nH]c2ccccc12)NC(=O)[C@@H]1CCCN1C(=O)[C@@H]1CCCN1C(=O)[C@H](CCCNC(=N)N)NC(=O)[C@H](CCCNC(=N)N)NC(=O)[C@H](CCCNC(=N)N)NC(=O)c1ccc(/N=N/c2ccc(N(C)C)cc2)cc1)C(=O)N[C@@H](CCCNC(=N)N)C(=O)N[C@@H](CCCNC(=N)N)C(=O)N[C@@H](CCCCN)C(N)=O
notes: peptide 8 with a Lys at the C-terminus and a Dabcyl group on the N-terminus; also called Dabcyl-containing peptide (unlabelled); source: synthetic peptide (Fmoc/tBu solid phase on Rink-amide MBHA resin, RP-HPLC purified)
